Measurements: article PMC6491520, “Antimicrobial Peptide LL-37 Facilitates Intracellular Uptake of RNA Aptamer Apt 21-2 Without Inducing an Inflammatory or Interferon Response”

Assays:
[1] = molecular target: T1, LL-37 (cathelicidin antimicrobial peptide) (UniProt P49913 134-170); experiment: EMSA; apparent KD from 50% loss of free aptamer; 100 nM RNA; 1 h on ice, 100 nM aptamer, 0-100 uM LL-37; binding buffer not stated; EMSA loading with 60 mM KCl, 10 mM Tris pH 7.6, 40% glycerol; 7% native PAGE in TBE; settings: label: 5' 32P
T1 chain: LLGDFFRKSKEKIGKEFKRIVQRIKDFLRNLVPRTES

[2] = molecular target: T1, LL-37 (cathelicidin antimicrobial …); experiment: filter binding; apparent KD from 50% loss of free aptamer; 100 nM RNA; 1 h on ice, 100 nM aptamer, 0-100 uM LL-37; binding buffer not stated; EMSA loading with 60 mM KCl, 10 mM Tris pH 7.6, 40% glycerol; 7% native PAGE in TBE; settings: label: 5' 32P

B1: Apt 21-2 (XNA)
RNA: GGUCUAGCCGGAGGAGUCAGUAAUCGGUAGACC
modifications: 2'-fluoro C and U
For B1, the Kd [1] was about 2000 nM and the Kd [2] was about 2000 nM.
